Experimental data: US20220324943A1 (UNIVERSITY OF FLORIDA RESEARCH FOUNDATION, published 2022)
One block for each binder: values may come before it.

How the values were obtained:
[1] = molecular target: T1, amyloid beta peptide (Aβ) (UniProt P05067 672-713); test: ELISA on plates coated with Aβ42 peptide, detection with anti-FLAG M2 HRP ('Ab9 scFv activity, Aβ42 ELISA')
T1 construct: also called Aβ9; Aβ9 ligand
Procedure: An ELISA-based assay was performed to assess Aβ9 scFv activity. 96-well plates were coated with Aβ42 peptide, and 293T conditioned media (containing the GBA-CCD and GBA-CCD-Aβ9 scFv proteins) and cell lysate were then added and incubated for 6 hours. ELISA was developed with anti-FLAG M2 HRP. (See FIG. 23.)

acidic FGF = molecular target: T2, acidic FGF (UniProt P05230 16-155, limits assumed); test: SPR, FGFR1-CCD injected over immobilized ligand
T2 construct: also called acidic FGF ligand
Procedure: Using a surface plasmon resonance (SPR) technique, the binding kinetics of FGFR1 was measured with two ligands, basic FGF and acidic FGF. A null FGFR1 ligand, vascular endothelial growth factor A (VEGFA), was used as a control. In SPR experiments, the binding of a molecule in the soluble phase (e.g. the peptide of the fusion protein) to a ligand molecule immobilized on a sensor surface is directly measured as a reflected light signal (SPR signal) in a biosensor device. The sensor device may contain an LED-emitting near infrared light, a glass prism fixed to a sensor microchip, and a position-sensitive diode array detector. Binding events cause changes in the refractive index at the surface layer, which are detected as changes in the SPR signal. Specifically, a signal arises when incident LED light is totally internally reflected from the metal-coated interface between two media of different refractive indices (the glass prism and solution). When the incident light is focused on the surface in a wedge, the drop in intensity at the resonance angle appears as a “shadow” in the reflected light wedge, which is detected by the detector. […]
This sensorgram consists of two phases: (Left) In the association phase, the FGFR1-CCD was injected over immobilized ligands on the surface. […] Binding kinetics, including the value of KD, the dissociation constant, can be calculated from the sensorgram.

T1 sequence (P05067 672-713): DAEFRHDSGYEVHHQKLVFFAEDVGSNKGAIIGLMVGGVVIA
T2 sequence (P05230 16-155 limits assumed): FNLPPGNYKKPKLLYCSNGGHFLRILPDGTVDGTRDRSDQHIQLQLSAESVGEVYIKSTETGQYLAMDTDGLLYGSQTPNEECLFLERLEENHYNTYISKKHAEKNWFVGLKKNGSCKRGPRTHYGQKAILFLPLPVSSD

binding result [1]: binds
B1: GBA_AB9 (scFv)
fusion protein monomer: ARPCIPKSFGYSSVVCVCNATYCDSFDPPTFPALGTFSRYESTRSGRRMELSMGPIQANHTGTGLLLTLQPEQKFQKVKGFGGAMTDAAALNILALSPPAQNLLLKSYFSEEGIGYNIIRVPMASCDFSIRTYTYADTPDDFQLHNFSLPEEDTKLKIPLIHRALQLAQRPVSLLASPWTSPTWLKTNGAVNGKGSLKGQPGDIYHQTWARYFVKFLDAYAEHKLQFWAVTAENEPSAGLLSGYPFQCLGFTPEHQRDFIARDLGPTLANSTHHNVRLLMLDDQRLLLPHWAKVVLTDPEAAKYVHGIAVHWYLDFLAPAKATLGETHRLFPNTMLFASEACVGSKFWEQSVRLGSWDRGMQYSHSIITNLLYHVVGWTDWNLALNPEGGPNWVRNFVDSPIIVDITKDTFYKQPMFYHLGHFSKFIPEGSQRVGLVASQKNDLDAVALMHPDGSAVVVVLNRSSKDVPLTIKDPAVGFLETISPGYSIHTYLWRRQLKEFMGYQGPPGPPGPPGIPGNHGNNGNNGATGHEGAKGEKGDKGDLGPRGERGQHGPKGEKGYPGIPGYCGPPGPPGPPGIPGNHGNNGNNGATGHEGAKGEKGDKGDLGPRGERGQHGPKGEKGYPGIPDYKDDDDKLQISGGGGSGGGGSQVTLKESGPGILQPSQTLSLTCSFSGFSLNTFGMGVSWIRQPSGKGLEWLAHIFWDDDKHYNPSLKSRLTISKDTSNNQVFLKITTVDTADTATYYCVRYGFDGFPYWGQGTLVTVSAGGGGSGGGGSGGGGSDVVMTQTPLSLPVSLGDQASISCRSNQSLVHSNGNTYLHWYLQKPGQSPKLLIYKVSNRFSGVPDRFSGSGSGTDFTLKISRVEAEDLGFYFCSQSTRVPWTFGGGTKLELKRAAAHHHHHHV
notes: fusion of glucocerebrosidase, CCD and Aβ9 scFv; tested as conditioned media and as protein purified from media and lysate; also called hGBA-CCD-Aβ9 scFv; GBA-CCD-antiAβ9 scFv fusion protein

Kd (acidic FGF): < 1 pM
B2: FGFR1-CCD fusion protein (receptor)
chain: RPSPTLPEQAQPWGAPVEVESFLVHPGDLLQLRCRLRDDVQSINWLRDGVQLAESNRTRITGEEVEVQDSVPADSGLYACVTSSPSGSDTTYFSVNVSDALPSSEDDDDDDDSSSEEKETDNTKPNPVAPYWTSPEKMEKKLHAVPAAKTVKFKCPSSGTPNPTLRWLKNGKEFKPDHRIGGYKVRYATGSIIMDSVVPSDKGNYTCIVENEYGSINHTYQLDVVERSPHRPILQAGLPANKTVALGSNVEFMCKVYSDPQPHIQWLKHIEVNGSKIGPDNLPYVQILKTAGVNTTDKEMEVLHLRNVSFEDAGEYTCLAGNSIGLSHHSAWLTVLEALEERPAVMLKEFMGYQGPPGPPGPPGIPGNHGNNGNNGATGHEGAKGEKGDKGDLGPRGERGQHGPKGEKGYPGIPGYCGPPGPPGPPGIPGNHGNNGNNGATGHEGAKGEKGDKGDLGPRGERGQHGPKGEKGYPGIPDYKDDDDKLQISSTVAAAHHHHHHV
notes: CCD fusions are said to form multimers (trimers, hexamers); It was expressed in cells, isolated and purified; also called Fibroblast growth factor receptor 1 (hsFGFR1) CCD fusion
